# Source: US20130273056A1 (NATIONAL UNIVERSITY OF SINGAPORE, published 2013)
# B1: WBP2 Y192-231F phospho-defective double mutant, V5-tagged (other, not shown: small tags and cut ends)
# chain: MALNKNHSEGGGVIVNNTESILMSYDHVELTFNDMKNVPEAFKGTKKGTVYLTPYRVIFLSKGKDAMQSFMMPFYLMKDCEIKQPVFGANYIKGTVKAEAGGGWEGSASYKLTFTAGGAIEFGQRMLQVASQASRGEVPSGAYGYSYMPSGAYVYPPPVANGMYPCPPGYPYPPPPPEFYPGPPMMDGAMGFVQPPPPPYPGPMEPPVSGPDVPSTPAAEAKAAEAAASAFYNPGNPHNVYMPTSQPPPPPYYPPEDKKTQ
# Target: T1, Estrogen receptor alpha (ERα) (UniProt P03372 1-595, limits assumed)
# T1 sequence (looked up): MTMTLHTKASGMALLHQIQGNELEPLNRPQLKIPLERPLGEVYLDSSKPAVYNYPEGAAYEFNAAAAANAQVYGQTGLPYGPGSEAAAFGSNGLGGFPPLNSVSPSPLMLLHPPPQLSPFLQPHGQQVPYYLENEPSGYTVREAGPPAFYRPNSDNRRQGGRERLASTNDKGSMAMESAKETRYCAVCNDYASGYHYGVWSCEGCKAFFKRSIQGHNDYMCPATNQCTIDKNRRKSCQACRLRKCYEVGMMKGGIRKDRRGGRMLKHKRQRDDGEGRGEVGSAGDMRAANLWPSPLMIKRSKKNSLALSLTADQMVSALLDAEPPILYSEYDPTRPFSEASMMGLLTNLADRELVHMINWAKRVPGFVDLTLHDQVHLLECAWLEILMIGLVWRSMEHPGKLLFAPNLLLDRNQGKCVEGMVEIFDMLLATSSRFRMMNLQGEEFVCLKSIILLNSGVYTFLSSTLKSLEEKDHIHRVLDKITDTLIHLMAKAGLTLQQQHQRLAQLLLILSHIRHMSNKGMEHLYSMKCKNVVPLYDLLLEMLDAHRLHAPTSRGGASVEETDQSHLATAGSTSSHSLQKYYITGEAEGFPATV
# Experiment: cell-based or functional assay
binder,measurement,value
B1,"ERα reporter activity (ERE-luciferase), loss of coactivator activity relative to vector and compared to WBP2",~60%
